Measurements from article PMC7465474, “Interplay of Structural Disorder and Short Binding Elements in the Cellular Chaperone Function of Plant Dehydrin ERD14” (Cells, 2020).

Target: T1, citrate synthase (CS) (E. coli (endogenous in AVB101), UniProt P0ABH7 1-427)
T1 sequence (looked up): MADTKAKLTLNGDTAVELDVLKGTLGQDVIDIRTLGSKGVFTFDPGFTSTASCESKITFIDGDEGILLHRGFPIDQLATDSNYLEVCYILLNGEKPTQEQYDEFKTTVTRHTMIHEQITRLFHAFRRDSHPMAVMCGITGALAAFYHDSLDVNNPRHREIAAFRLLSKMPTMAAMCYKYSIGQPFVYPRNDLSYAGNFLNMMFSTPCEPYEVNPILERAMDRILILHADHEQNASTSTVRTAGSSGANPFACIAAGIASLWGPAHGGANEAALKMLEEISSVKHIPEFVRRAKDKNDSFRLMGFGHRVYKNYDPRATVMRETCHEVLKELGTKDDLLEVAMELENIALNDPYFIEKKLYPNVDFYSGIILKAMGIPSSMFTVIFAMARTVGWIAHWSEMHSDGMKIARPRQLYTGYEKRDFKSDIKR
Experiment: cell-based or functional assay

enthalpy change of unfolding (ΔHm) of 2 μM CS, two-state fit of the CD thermal denaturation, with 2, 5 and 13 μM purified WT ERD14 (396 falling to 316 kJ/mol; CS alone 475 kJ/mol): 94.6 kcal/mol
B1: Early Response to Dehydration 14 (ERD14) of A. thaliana, wild type, biotinylated in the cell (natural protein, UniProt P42763 1-185, looked up)
chain: MAEEIKNVPEQEVPKVATEESSAEVTDRGLFDFLGKKKDETKPEETPIASEFEQKVHISEPEPEVKHESLLEKLHRSDSSSSSSSEEEGSDGEKRKKKKEKKKPTTEVEVKEEEKKGFMEKLKEKLPGHKKPEDGSAVAAAPVVVPPPVEEAHPVEKKGILEKIKEKLPGYHPKTTVEEEKKDKE
modifications: biotin (in-cell biotinylation)
melting temperature (Tm) of 2 μM CS, thermal denaturation followed by CD at 220 nm, with 2, 5 and 13 μM purified WT ERD14 (50.5 to 55.3 °C; CS alone 49.5 °C): 55.3 °C
